# Test results as given in publication PMC10786891, “Massively parallel profiling of RNA-targeting CRISPR-Cas13d”.
# T1: EsCas13d, nuclease-dead (Eubacterium siraeum, UniProt B0MS50, R295A;H300A;R849A;H854A)
# T1 sequence: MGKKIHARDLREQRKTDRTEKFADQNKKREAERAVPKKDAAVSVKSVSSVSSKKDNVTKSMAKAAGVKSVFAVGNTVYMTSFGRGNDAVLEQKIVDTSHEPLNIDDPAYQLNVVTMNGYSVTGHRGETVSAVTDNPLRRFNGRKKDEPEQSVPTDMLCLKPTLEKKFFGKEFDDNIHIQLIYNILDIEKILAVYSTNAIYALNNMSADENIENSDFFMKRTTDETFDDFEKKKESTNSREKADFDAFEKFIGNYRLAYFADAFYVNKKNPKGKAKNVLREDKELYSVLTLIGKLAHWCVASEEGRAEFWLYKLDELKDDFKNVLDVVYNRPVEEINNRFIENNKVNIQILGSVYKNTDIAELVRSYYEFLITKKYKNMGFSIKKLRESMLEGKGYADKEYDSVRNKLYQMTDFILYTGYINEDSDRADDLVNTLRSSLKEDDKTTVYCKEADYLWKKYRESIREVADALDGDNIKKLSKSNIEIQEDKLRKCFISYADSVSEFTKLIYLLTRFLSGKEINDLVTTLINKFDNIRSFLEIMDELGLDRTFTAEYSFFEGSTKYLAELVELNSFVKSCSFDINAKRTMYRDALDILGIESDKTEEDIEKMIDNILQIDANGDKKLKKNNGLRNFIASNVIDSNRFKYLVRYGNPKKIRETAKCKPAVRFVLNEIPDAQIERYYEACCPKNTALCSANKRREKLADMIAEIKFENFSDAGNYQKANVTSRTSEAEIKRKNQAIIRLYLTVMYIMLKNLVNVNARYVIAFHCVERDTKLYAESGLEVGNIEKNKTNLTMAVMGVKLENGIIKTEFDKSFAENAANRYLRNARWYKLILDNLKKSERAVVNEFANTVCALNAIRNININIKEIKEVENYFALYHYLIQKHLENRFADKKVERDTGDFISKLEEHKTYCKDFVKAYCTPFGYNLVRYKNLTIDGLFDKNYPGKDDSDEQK
# B1: target 1 C6U,A16U (mixed)
# RNA 1: CACCCGUGCAAAAAUGCAGGGGUCUAAAACUGAGCGGAUAACCUCUCUAUGG
# RNA 2: GGGAAUGGAUCCACAUCUACGAAUUCGUACCAUAGUGAGGUUAUCUGCUCACCGAGAUCGGAAGAGCACACGU
# B2: target 1 del7,del16 (mixed)
# RNA 1: CACCCGUGCAAAAAUGCAGGGGUCUAAAACUGAGCGGAUAACCUCUCUAUGG
# RNA 2: GGGAAUGGAUCCACAUCUACGAAUUCGUACCAUAGGAGGUUAUCGCUCACCGAGAUCGGAAGAGCACACGU
# B3: target 1 A18C,U19A (mixed)
# RNA 1: CACCCGUGCAAAAAUGCAGGGGUCUAAAACUGAGCGGAUAACCUCUCUAUGG
# RNA 2: GGGAAUGGAUCCACAUCUACGAAUUCGUACCAACGAGAGGUUAUCCGCUCACCGAGAUCGGAAGAGCACACGU
# B4: target 2 MT 5'PFS GAU 3'PFS ACA (mixed)
# RNA 1: CACCCGUGCAAAAUUGCAGGGGUCUAAAACCUUCUCCAAAUUGUUUCAUCCU
# RNA 2: GGGAAUGGAUCCACAUCUACGAAUUCGAUAGGAUGAAACAAUUUGGAGAAGACAAGAUCGGAAGAGCACACGU
# B5: target 2 MT 5'PFS GUG 3'PFS UCU (mixed)
# RNA 1: CACCCGUGCAAAAUUGCAGGGGUCUAAAACCUUCUCCAAAUUGUUUCAUCCU
# RNA 2: GGGAAUGGAUCCACAUCUACGAAUUCGUGAGGAUGAAACAAUUUGGAGAAGUCUAGAUCGGAAGAGCACACGU
# B6: target 2 MT 5'PFS ACA 3'PFS UAA (mixed)
# RNA 1: CACCCGUGCAAAAUUGCAGGGGUCUAAAACCUUCUCCAAAUUGUUUCAUCCU
# RNA 2: GGGAAUGGAUCCACAUCUACGAAUUCACAAGGAUGAAACAAUUUGGAGAAGUAAAGAUCGGAAGAGCACACGU
# B7: target 2 MT 5'PFS UAC 3'PFS AAG (mixed)
# RNA 1: CACCCGUGCAAAAUUGCAGGGGUCUAAAACCUUCUCCAAAUUGUUUCAUCCU
# RNA 2: GGGAAUGGAUCCACAUCUACGAAUUCUACAGGAUGAAACAAUUUGGAGAAGAAGAGAUCGGAAGAGCACACGU
# B8: target 2 MT 5'PFS ACA 3'PFS UAC (mixed)
# RNA 1: CACCCGUGCAAAAUUGCAGGGGUCUAAAACCUUCUCCAAAUUGUUUCAUCCU
# RNA 2: GGGAAUGGAUCCACAUCUACGAAUUCACAAGGAUGAAACAAUUUGGAGAAGUACAGAUCGGAAGAGCACACGU
# B9: target 2 MT 5'PFS AAC 3'PFS AAA (mixed)
# RNA 1: CACCCGUGCAAAAUUGCAGGGGUCUAAAACCUUCUCCAAAUUGUUUCAUCCU
# RNA 2: GGGAAUGGAUCCACAUCUACGAAUUCAACAGGAUGAAACAAUUUGGAGAAGAAAAGAUCGGAAGAGCACACGU
# B10: target 2 MT 5'PFS UAC 3'PFS UGC (mixed)
# RNA 1: CACCCGUGCAAAAUUGCAGGGGUCUAAAACCUUCUCCAAAUUGUUUCAUCCU
# RNA 2: GGGAAUGGAUCCACAUCUACGAAUUCUACAGGAUGAAACAAUUUGGAGAAGUGCAGAUCGGAAGAGCACACGU
# B11: target 2 MT 5'PFS CCU 3'PFS UCC (mixed)
# RNA 1: CACCCGUGCAAAAUUGCAGGGGUCUAAAACCUUCUCCAAAUUGUUUCAUCCU
# RNA 2: GGGAAUGGAUCCACAUCUACGAAUUCCCUAGGAUGAAACAAUUUGGAGAAGUCCAGAUCGGAAGAGCACACGU
# B12: target 2 MT 5'PFS CAU 3'PFS CUC (mixed)
# RNA 1: CACCCGUGCAAAAUUGCAGGGGUCUAAAACCUUCUCCAAAUUGUUUCAUCCU
# RNA 2: GGGAAUGGAUCCACAUCUACGAAUUCCAUAGGAUGAAACAAUUUGGAGAAGCUCAGAUCGGAAGAGCACACGU
# B13: target 2 MT 5'PFS UUC 3'PFS UAC (mixed)
# RNA 1: CACCCGUGCAAAAUUGCAGGGGUCUAAAACCUUCUCCAAAUUGUUUCAUCCU
# RNA 2: GGGAAUGGAUCCACAUCUACGAAUUCUUCAGGAUGAAACAAUUUGGAGAAGUACAGAUCGGAAGAGCACACGU
# B14: target 2 MT 5'PFS GUG 3'PFS UCA (mixed)
# RNA 1: CACCCGUGCAAAAUUGCAGGGGUCUAAAACCUUCUCCAAAUUGUUUCAUCCU
# RNA 2: GGGAAUGGAUCCACAUCUACGAAUUCGUGAGGAUGAAACAAUUUGGAGAAGUCAAGAUCGGAAGAGCACACGU
# B15: target 2 MT 5'PFS GUG 3'PFS UCC (mixed)
# RNA 1: CACCCGUGCAAAAUUGCAGGGGUCUAAAACCUUCUCCAAAUUGUUUCAUCCU
# RNA 2: GGGAAUGGAUCCACAUCUACGAAUUCGUGAGGAUGAAACAAUUUGGAGAAGUCCAGAUCGGAAGAGCACACGU
# B16: target 2 MT 5'PFS GUU 3'PFS UUC (mixed)
# RNA 1: CACCCGUGCAAAAUUGCAGGGGUCUAAAACCUUCUCCAAAUUGUUUCAUCCU
# RNA 2: GGGAAUGGAUCCACAUCUACGAAUUCGUUAGGAUGAAACAAUUUGGAGAAGUUCAGAUCGGAAGAGCACACGU
# B17: target 2 MT 5'PFS CUA 3'PFS CCU (mixed)
# RNA 1: CACCCGUGCAAAAUUGCAGGGGUCUAAAACCUUCUCCAAAUUGUUUCAUCCU
# RNA 2: GGGAAUGGAUCCACAUCUACGAAUUCCUAAGGAUGAAACAAUUUGGAGAAGCCUAGAUCGGAAGAGCACACGU
# B18: target 2 MT 5'PFS GUU 3'PFS UUU (mixed)
# RNA 1: CACCCGUGCAAAAUUGCAGGGGUCUAAAACCUUCUCCAAAUUGUUUCAUCCU
# RNA 2: GGGAAUGGAUCCACAUCUACGAAUUCGUUAGGAUGAAACAAUUUGGAGAAGUUUAGAUCGGAAGAGCACACGU
# B19: target 2 MT 5'PFS CAU 3'PFS CUG (mixed)
# RNA 1: CACCCGUGCAAAAUUGCAGGGGUCUAAAACCUUCUCCAAAUUGUUUCAUCCU
# RNA 2: GGGAAUGGAUCCACAUCUACGAAUUCCAUAGGAUGAAACAAUUUGGAGAAGCUGAGAUCGGAAGAGCACACGU
# B20: target 2 MT 5'PFS UAC 3'PFS AAU (mixed)
# RNA 1: CACCCGUGCAAAAUUGCAGGGGUCUAAAACCUUCUCCAAAUUGUUUCAUCCU
# RNA 2: GGGAAUGGAUCCACAUCUACGAAUUCUACAGGAUGAAACAAUUUGGAGAAGAAUAGAUCGGAAGAGCACACGU
# B21: target 2 MT 5'PFS UAC 3'PFS AAC (mixed)
# RNA 1: CACCCGUGCAAAAUUGCAGGGGUCUAAAACCUUCUCCAAAUUGUUUCAUCCU
# RNA 2: GGGAAUGGAUCCACAUCUACGAAUUCUACAGGAUGAAACAAUUUGGAGAAGAACAGAUCGGAAGAGCACACGU
# B22: target 2 MT 5'PFS CGC 3'PFS UUG (mixed)
# RNA 1: CACCCGUGCAAAAUUGCAGGGGUCUAAAACCUUCUCCAAAUUGUUUCAUCCU
# RNA 2: GGGAAUGGAUCCACAUCUACGAAUUCCGCAGGAUGAAACAAUUUGGAGAAGUUGAGAUCGGAAGAGCACACGU
# B23: target 2 MT 5'PFS GAU 3'PFS ACC (mixed)
# RNA 1: CACCCGUGCAAAAUUGCAGGGGUCUAAAACCUUCUCCAAAUUGUUUCAUCCU
# RNA 2: GGGAAUGGAUCCACAUCUACGAAUUCGAUAGGAUGAAACAAUUUGGAGAAGACCAGAUCGGAAGAGCACACGU
# B24: target 2 MT 5'PFS GAU 3'PFS ACG (mixed)
# RNA 1: CACCCGUGCAAAAUUGCAGGGGUCUAAAACCUUCUCCAAAUUGUUUCAUCCU
# RNA 2: GGGAAUGGAUCCACAUCUACGAAUUCGAUAGGAUGAAACAAUUUGGAGAAGACGAGAUCGGAAGAGCACACGU
# B25: target 2 MT 5'PFS AUU 3'PFS UCU (mixed)
# RNA 1: CACCCGUGCAAAAUUGCAGGGGUCUAAAACCUUCUCCAAAUUGUUUCAUCCU
# RNA 2: GGGAAUGGAUCCACAUCUACGAAUUCAUUAGGAUGAAACAAUUUGGAGAAGUCUAGAUCGGAAGAGCACACGU
# B26: target 2 MT 5'PFS GUG 3'PFS UCG (mixed)
# RNA 1: CACCCGUGCAAAAUUGCAGGGGUCUAAAACCUUCUCCAAAUUGUUUCAUCCU
# RNA 2: GGGAAUGGAUCCACAUCUACGAAUUCGUGAGGAUGAAACAAUUUGGAGAAGUCGAGAUCGGAAGAGCACACGU
# B27: target 2 MT 5'PFS ACA 3'PFS UAU (mixed)
# RNA 1: CACCCGUGCAAAAUUGCAGGGGUCUAAAACCUUCUCCAAAUUGUUUCAUCCU
# RNA 2: GGGAAUGGAUCCACAUCUACGAAUUCACAAGGAUGAAACAAUUUGGAGAAGUAUAGAUCGGAAGAGCACACGU
# B28: target 2 MT 5'PFS UAC 3'PFS AAA (mixed)
# RNA 1: CACCCGUGCAAAAUUGCAGGGGUCUAAAACCUUCUCCAAAUUGUUUCAUCCU
# RNA 2: GGGAAUGGAUCCACAUCUACGAAUUCUACAGGAUGAAACAAUUUGGAGAAGAAAAGAUCGGAAGAGCACACGU
# Target: T1, EsCas13d, nuclease-dead
# Assay: crRNA (strand 1, pre-loaded); Mg2+; 40 mM Tris-HCl pH 7.5, 150 mM NaCl, 6 mM MgCl2, 1 mM DTT, 0.1% Tween-20, 0.2 mg/ml BSA; 25 C; 10 min per concentration, then washed
# Details: tags: His6-TwinStrep-SUMO cleaved; N-terminal SNAP kept (SNAP-Surface 488); label: 3' end held by stalled T7 RNA polymerase
binder,measurement,value
B1,Kd,37.1 ± 2.6 nM
B2,Kd,45 ± 6 nM
B3,Kd,49 ± 4 nM
B4,Kd,10.6 ± 1.6 nM
B5,Kd,18.9 ± 1.8 nM
B6,Kd,4.3 ± 1.4 nM
B7,Kd,5.8 ± 1 nM
B8,Kd,~18 nM
B9,Kd,10 ± 5 nM
B10,Kd,6 ± 0.8 nM
B11,Kd,1.74 ± 0.18 nM
B12,Kd,6.8 ± 0.8 nM
B13,Kd,17 ± 6 nM
B14,Kd,17.3 ± 2.7 nM
B15,Kd,42 ± 6 nM
B16,Kd,31 ± 5 nM
B17,Kd,~49 nM
B18,Kd,51 ± 11 nM
B19,Kd,5.4 ± 0.8 nM
B20,Kd,10 ± 4 nM
B21,Kd,11 ± 4 nM
B22,Kd,8.1 ± 1.4 nM
B23,Kd,17.7 ± 3.4 nM
B24,Kd,17.2 ± 2.2 nM
B25,Kd,10.7 ± 0.6 nM
B26,Kd,18.2 ± 2.2 nM
B27,Kd,5.1 ± 1.1 nM
B28,Kd,6 ± 1.4 nM
